Data published in paper PMC11145253 (Proceedings of the National Academy of Sciences of the …, 2024).

Molecular target: T1, CTDNEP1ΔAH as it stands in the crystallized CTDNEP1ΔAH-linker-sNEP1R1-His6 fusion (human, UniProt O95476 40-244)
T1 sequence (looked up): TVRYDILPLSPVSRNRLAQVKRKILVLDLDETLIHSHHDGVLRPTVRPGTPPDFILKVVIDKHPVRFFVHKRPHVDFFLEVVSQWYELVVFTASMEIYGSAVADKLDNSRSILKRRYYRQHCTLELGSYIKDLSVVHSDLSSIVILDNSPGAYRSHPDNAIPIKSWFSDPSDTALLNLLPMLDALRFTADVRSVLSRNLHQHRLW
Assay: crystal structure

GSAKGSES [linker peptide of the CTDNEP1ΔAH-linker-sNEP1R1-His6 fusion]: binds.
